Tests used:
[1] = test system: Target-1 (SEQ ID NO: 358), human endogenous DNA target site; assay: Indel efficiency of CWCas12f1 gene editing system with engineered gRNAs, target sequence 1; type: cell-based
Protocol: (§1) To this end, each of the modification site MS3 to MS5 in the canonical sgRNA was further subdivided into three sections (see FIG. 2A). By combining one or more of these modifications, engineered gRNAs (see Table 10 in Example 1.2.1) were produced, and the indel activity for each of them was tested. As target sequences for comparing the indel efficiency, two types of human endogenous DNA target sites comprising the PAM sequence recognized as the cleavage site by the CWCas12f1 protein were identified and used, and the specific nucleotide sequences are provided in Table 12 below.
(§2) Next, to obtain a highly efficient engineered single guide RNA for the CWCas12f1 protein, 5′-[…]uuagGGGAUUA […]gaaaGAAUGAAGGAAUGCAA […]-3′ (SEQ ID NO: 337), which is a mature form (hereinafter referred to as ‘MF’) sgRNA, and engineered gRNAs having partial modifications in the nucleotide sequence of the MF sgRNA were produced (see Table 11), and the indel efficiency of the CWCas12f1 gene editing system caused by them was measured.
(§3) Meanwhile, the comparative experiment of indel efficiency of the engineered Cas12f1 proteins in Examples 1.2.2 and 1.2.3 was performed as follows.
(§4) One day before transfection, HEK293T cells, which had been grown in 24-well plates to 80-90% confluency (based on 100φ dishes), were diluted 1/100 and passaged to prepare a volume of 500 μl. A total of 2 μg of DNA (vector+sgRNA transcription cassette targeting DY10) was used per transfection well. The experiment was repeated twice for each group. A transfection mixture was prepared which contains 1.5 μg of plasmid encoding the wild-type Cas12f1 or the engineered Cas12f1, 0.5 μg of the sgRNA transcription cassette, 200 μl of DMEM (excluding FBS and antibiotics), and 6 μl of FuGENE (Promega) reagent.
(§5) DNA and DMEM containing FuGENE reagent were mixed and vortexed, and then incubated for 15 minutes. 200 μl of the thus prepared transfection mixture was used to treat the cells prepared in a 24-well plate, and incubated at 37° C. […]
(§6) Indel frequency was calculated using MAUND provided at ┌https://github.com/ibs-cge/maund┘.

[2] = test system: Target-2 (SEQ ID NO: 359), human endogenous DNA target site; assay: Indel efficiency of CWCas12f1 gene editing system with engineered gRNAs, target sequence 2; type: cell-based
Protocol: as §1, §2, §3, §4, §5, §6

B1: MS3-3/MS4-3: MF-based engineered sgRNA, SEQ ID NO: 347 (nucleic acid)
guide: ACCGCUUCACCAAAAGCUGUCCCUUAGGGGAUUAGAACUUGAGUGAAGGUGGGCUGCUUGCAUCAGCCUAAUGUCGAGAAGUGCUUUCUUCGGAAAGUAACCCUCGAAACAAAGAAAGGAAUGCAACNNNNNNNNNNNNNNNNNNNN
modifications: Mature form sgRNA with modification of MS3-3/MS4-3; misc_feature 128..147 n is a, c, g or u
indel efficiency ([1]; CWCas12f1, Target-1, MF-based gRNA with U-rich tail (U4AU4) added to the 3′-end (MS2), FIG. 4B): about 60% | indel efficiency ([1]; CWCas12f1, Target-1, gRNAs engineered from mature form (MF) sgRNA, no U-rich tail, FIG. 4A): about 40% | indel efficiency ([2]; CWCas12f1, Target-2, MF-based gRNA with U-rich tail (U4AU4) added to the 3′-end (MS2), FIG. 4D): about 50% | indel efficiency ([2]; CWCas12f1, Target-2, gRNAs engineered from mature form (MF) sgRNA, no U-rich tail, FIG. 4C): about 20%

B2: Canonical sgRNA: canonical (wild-type, full length) single guide RNA for Cas12f1, SEQ ID NO: 177 (nucleic acid)
guide: CUUCACUGAUAAAGUGGAGAACCGCUUCACCAAAAGCUGUCCCUUAGGGGAUUAGAACUUGAGUGAAGGUGGGCUGCUUGCAUCAGCCUAAUGUCGAGAAGUGCUUUCUUCGGAAAGUAACCCUCGAAACAAAUUCAUUUUUCCUCUCCAAUUCUGCACAAGAAAGUUGCAGAACCCGAAUAGACGAAUGAAGGAAUGCAACNNNNNNNNNNNNNNNNNNNN
modifications: Canonical sgRNA for Cas12f1; misc_feature 203..222 n is a, c, g or u
indel efficiency ([1]; CWCas12f1 protein, Target-1 (SEQ ID NO: 358), gRNAs engineered from canonical sgRNA, FIG. 3A): did not cause cleavage of the target strand | indel efficiency ([2]; CWCas12f1 protein, Target-2 (SEQ ID NO: 359), gRNAs engineered from canonical sgRNA, FIG. 3B): did not cause cleavage of the target strand

— patent US20250222136A1, “GENE EDITING SYSTEM FOR TREATING USHER SYNDROME” (GenKOre, Inc., priority 2022, published 2025)
